From patent US20020034767

System: G protein βγ subunits

## β-adrenergic receptor kinase
  rhodopsin phosphorylation in the presence or absence of 100 nM G protein βγ subunits: βARK is significantly activated in the presence of G protein βγ subunits
